Changes are numbered by the printed parent chain.
Assays:
Test in all cases: BLI (Octet), biotinylated mAb on streptavidin sensors, culture supernatant
[1] = target: T1, RSV180916 (I152M + K226M + D486N + S215P + L203I + P101Q; C-tag, RSV A signal peptide) (respiratory syncytial virus, subgroup B …, UniProt O36634 26-109; P13843 137-540)
T1 chain 1: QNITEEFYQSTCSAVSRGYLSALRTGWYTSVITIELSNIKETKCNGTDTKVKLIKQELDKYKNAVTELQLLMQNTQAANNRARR
T1 chain 2: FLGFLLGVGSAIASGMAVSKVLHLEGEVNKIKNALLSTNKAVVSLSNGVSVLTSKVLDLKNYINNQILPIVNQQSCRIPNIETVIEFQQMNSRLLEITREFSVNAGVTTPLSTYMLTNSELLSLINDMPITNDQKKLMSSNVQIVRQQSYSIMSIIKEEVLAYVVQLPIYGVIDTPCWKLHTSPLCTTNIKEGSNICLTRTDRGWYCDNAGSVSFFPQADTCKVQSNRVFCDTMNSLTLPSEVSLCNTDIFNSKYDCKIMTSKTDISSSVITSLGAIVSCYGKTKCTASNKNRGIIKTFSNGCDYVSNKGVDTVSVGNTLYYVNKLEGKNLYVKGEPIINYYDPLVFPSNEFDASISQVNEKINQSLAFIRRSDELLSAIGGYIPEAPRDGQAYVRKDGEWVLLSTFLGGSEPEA
Protocol: (§1) Quantitative Octet (BioLayer Interferometry) was used for measuring protein concentration in the supernatants at day of harvest and after 7 or 30 days storage at 4° C. CR9501 (an antibody specifically recognizing pre-fusion RSV F protein, which comprises the variable regions of the antibodies 58C5 as described in WO2012/006596) and CR9506 (recognizing pre-fusion and post-fusion RSV F protein and comprising a heavy chain variable region comprising SEQ ID NO: 21, and a light chain variable region comprising SEQ ID NO: 22) were biotinylated by standard protocols and immobilized on Streptavidin biosensors (ForteBio, Portsmouth, UK).
(§2) Afterwards, the coated biosensors were blocked in mock cell culture supernatant. A quantitative experiment was performed as follows: temperature 30° C., shaking speed 1000 rpm, time of the assay 300 sec. The concentration of the protein was calculated using a standard curve. The standard curve was prepared for each coated antibody CR9501 and CR9506 using the pre-fusion RSV FA protein (SEQ ID NO: 19; described previously in WO17174568) diluted in mock medium. […] The data analysis was done using the ForteBio Data Analysis 10.0.1.6 software (ForteBio).

[2] = target: T2, RSV181179 (I152M + K226M + D486N) (respiratory syncytial virus, subgroup B …, UniProt O36634 26-109; P13843 137-540)
T2 construct: Measured in crude culture supernatant, no furin co-transfection
T2 chain 1: T1 chain 1 with Q76P
T2 chain 2: T1 chain 2 with I67L, P79S
Protocol: as §1, §2

[3] = target: T3, RSV181177, non-stabilized RSV F B consensus soluble polypeptide with foldon and C-tag (respiratory syncytial virus, subgroup B …, UniProt O36634 26-109; O36634 137-540)
T3 construct: Measured in crude culture supernatant, no furin co-transfection; processing may be incomplete; End 551 is the end of the entry as counted; also called non-stabilized RSV F type B; non-stabilized F
T3 chain 1: T1 chain 1 with Q76P
T3 chain 2: T1 chain 2 with M16I, I67L, P79S, M90K, N350D
Protocol: as §1, §2

[4] = target: T4, RSV181180 (I152M + K226M + D486N + S215P + P101Q) (respiratory syncytial virus, subgroup B …, UniProt O36634 26-109; P13843 137-540)
T4 chain 1: T1 chain 1
T4 chain 2: T1 chain 2 with I67L
Protocol: as §1, §2

Measured: binding result

B1: CR9506 (antibody, human IgG1, kappa, V domains shown)
VH: EVQLVQSGAEVKKPGSSVKVSCKASGGTFSRSLITWVRQAPGQGLEWMGEISLVFGSAKNAQKFQGRVTITADESTSTAHMEMISLKHEDTAVYYCAAHQYGSGTHNNFWDESELRFDLWGQGTLVTVSS
VL: DIVMTQSPSSLSASVGDRVTIACRASQSIGTYLNWYQQKPGKAPKLLIYAASSLQSGVPSRFSGSGSGTHFTLAISSLQAEDFATYSCQQSYTIPYTFGQGTKLEIKR
notes: Biotinylated for Octet; coated and also used HRP-labelled as detection antibody in the ELISA
binds: [1] | [2] | [3] | [4]
